Results: US20210260163A1 (ASKGENE PHARMA, published 2021)

Assays:
[1] = target: T1, IL-2 ("IL-2 proteins" coated on the ELISA plate) (UniProt P60568 21-153, limits assumed); assay: ELISA, IL-2 coated, Fc-mask fusion titrated, pH 6.4
Method: (§1) 10 μg/ml of IL-2 proteins in PBS were seeded to the 96-well plate at 100 μl/well and coated at 4 degree for overnight. The wells were washed by PBS three times and blocked with 100 μl 2% milk/PBS for 1 hr. Then the wells were washed three times by PBS and 100 μl protein samples with 3-fold serial dilution were added to the wells for 1 hr incubation at room temperature. After three times of PBS washing, 100 μl of HRP conjugated anti-IgG antibody were added and incubated at RT for 1 hr. Subsequently, the wells were washed again by PBS for 3 times, detection reagents were added and OD450 nm were measured.
(§2) In order to discover improved versions of the IL-2 antagonist or mask with higher folds of activations upon protease cleavage, a number of mutations in the IL-2Rβ extracellular domain were constructed.

[2] = target: T1, IL-2 ("IL-2 proteins" coated on the …); assay: ELISA, IL-2 coated, Fc-mask fusion titrated, pH 7.4
Method: as §1, §2

[3] = target: T1, IL-2 ("IL-2 proteins" coated on the …); assay: ELISA, IL-2 coated, pH 6.4; reference understood as wild type (SEQ ID NO: 195)
Method: as §1, §2

[4] = target: T1, IL-2 ("IL-2 proteins" coated on the …); assay: ELISA, IL-2 coated, pH 7.4
Method: as §1, §2

[5] = target: T1, IL-2 ("IL-2 proteins" coated on the …); assay: ELISA, IL-2 coated, pH 6.4; reference wild type
Method: as §1, §2

[6] = target: T1, IL-2 ("IL-2 proteins" coated on the …); assay: ELISA, IL-2 coated, pH 7.4 and pH 6.4; reference understood as wild type (SEQ ID NO: 195)
Method: as §1, §2

T1 sequence (P60568 21-153 limits assumed): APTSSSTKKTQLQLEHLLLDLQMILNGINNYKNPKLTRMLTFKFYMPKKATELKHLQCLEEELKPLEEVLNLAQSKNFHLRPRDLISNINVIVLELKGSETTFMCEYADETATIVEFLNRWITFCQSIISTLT

| Kd [1] [µg/mL] | Kd [2] [µg/mL] | binding result [4] | Binder | further results |
| --- | --- | --- | --- | --- |
| 269 | 219 | – | Fc with LALA and hole mutation (L234A-L235A-Y407T) with beta subunit (SEQ ID NO: 195), expressed as homodimer (Fc fusion, also called WT) DKTHTCPPCPAPEAAGGPSVFLFPPKPKDTLMISRTPEVTCVVVDVSHEDPEVKFNWYVDGVEVHNAKTKPREEQYNSTYRVVSVLTVLHQDWLNGKEYKCKVSNKALPAPIEKTISKAKGQPREPQVYTLPPSREEMTKNQVSLTCLVKGFYPSDIAVEWESNGQPENNYKTTPPVLDSDGSFFLTSKLTVDKSRWQQGNVFSCSVMHEALHNHYTQKSLSLSPGKGGGGSGGGGSGGGGSLSGRSDNHGGGGSAVNGTSQFTCFYNSRANISCVWSQDGALQDTSCQVHAWPDRRRWNQTCELLPVSQASWACNLILGAPDSQKLTTVDIVTLRVLCREGVRWRVMAIQDFKPFENLRLMAPISLQVVHVETHRCNISWEISQASHYFERHLEFEARTLSPGHTWEEAPLLTLKQKQEWICLETLTPDTQYEFQVRVKPLQGEFTTWSPWSQPLAFRTKPAALGKDT | – |
| 128 | – | – | Fc with LALA and hole mutation (L234A-L235A-Y407T) fused with beta subunit containing mutation (E136Q) (SEQ ID NO: 204), homodimer (Fc fusion) DKTHTCPPCPAPEAAGGPSVFLFPPKPKDTLMISRTPEVTCVVVDVSHEDPEVKFNWYVDGVEVHNAKTKPREEQYNSTYRVVSVLTVLHQDWLNGKEYKCKVSNKALPAPIEKTISKAKGQPREPQVYTLPPSREEMTKNQVSLTCLVKGFYPSDIAVEWESNGQPENNYKTTPPVLDSDGSFFLTSKLTVDKSRWQQGNVFSCSVMHEALHNHYTQKSLSLSPGKGGGGSGGGGSGGGGISSGLLSSGGSGGSLSGRSDNHGGGGSAVNGTSQFTCFYNSRANISCVWSQDGALQDTSCQVHAWPDRRRWNQTCELLPVSQASWACNLILGAPDSQKLTTVDIVTLRVLCREGVRWRVMAIQDFKPFENLRLMAPISLQVVHVETHRCNISWEISQASHYFQRHLEFEARTLSPGHTWEEAPLLTLKQKQEWICLETLTPDTQYEFQVRVKPLQGEFTTWSPWSQPLAFRTKPAALGKDT | fold better binding affinity at pH 6.4 [3]: 2 fold |
| – | – | no binding | Fc with LALA and hole mutation (L234A-L235A-Y407T) fused with beta subunit containing mutation R15Y (SEQ ID NO: 199), homodimer (Fc fusion) DKTHTCPPCPAPEAAGGPSVFLFPPKPKDTLMISRTPEVTCVVVDVSHEDPEVKFNWYVDGVEVHNAKTKPREEQYNSTYRVVSVLTVLHQDWLNGKEYKCKVSNKALPAPIEKTISKAKGQPREPQVYTLPPSREEMTKNQVSLTCLVKGFYPSDIAVEWESNGQPENNYKTTPPVLDSDGSFFLTSKLTVDKSRWQQGNVFSCSVMHEALHNHYTQKSLSLSPGKGGGGSGGGGSGGGGISSGLLSSGGSGGSLSGRSDNHGGGGSAVNGTSQFTCFYNSYANISCVWSQDGALQDTSCQVHAWPDRRRWNQTCELLPVSQASWACNLILGAPDSQKLTTVDIVTLRVLCREGVRWRVMAIQDFKPFENLRLMAPISLQVVHVETHRCNISWEISQASHYFERHLEFEARTLSPGHTWEEAPLLTLKQKQEWICLETLTPDTQYEFQVRVKPLQGEFTTWSPWSQPLAFRTKPAALGKDT | – |
| 105 | 269 | – | Fc-mask fusion with beta subunit containing mutation (E136Q/H138R) (SEQ ID NO: 205), homodimer (Fc fusion) DKTHTCPPCPAPEAAGGPSVFLFPPKPKDTLMISRTPEVTCVVVDVSHEDPEVKFNWYVDGVEVHNAKTKPREEQYNSTYRVVSVLTVLHQDWLNGKEYKCKVSNKALPAPIEKTISKAKGQPREPQVYTLPPSREEMTKNQVSLTCLVKGFYPSDIAVEWESNGQPENNYKTTPPVLDSDGSFFLTSKLTVDKSRWQQGNVFSCSVMHEALHNHYTQKSLSLSPGKGGGGSGGGGSGGGGISSGLLSSGGSGGSLSGRSDNHGGGGSAVNGTSQFTCFYNSRANISCVWSQDGALQDTSCQVHAWPDRRRWNQTCELLPVSQASWACNLILGAPDSQKLTTVDIVTLRVLCREGVRWRVMAIQDFKPFENLRLMAPISLQVVHVETHRCNISWEISQASHYFQRRLEFEARTLSPGHTWEEAPLLTLKQKQEWICLETLTPDTQYEFQVRVKPLQGEFTTWSPWSQPLAFRTKPAALGKDT | fold enhancement of binding affinity at pH 6.4 against wild type [5]: 2 fold |
| – | – | no binding | Fc with LALA and hole mutation (L234A-L235A-Y407T) fused with beta subunit containing mutation (V75F) (SEQ ID NO: 203), homodimer (Fc fusion) DKTHTCPPCPAPEAAGGPSVFLFPPKPKDTLMISRTPEVTCVVVDVSHEDPEVKFNWYVDGVEVHNAKTKPREEQYNSTYRVVSVLTVLHQDWLNGKEYKCKVSNKALPAPIEKTISKAKGQPREPQVYTLPPSREEMTKNQVSLTCLVKGFYPSDIAVEWESNGQPENNYKTTPPVLDSDGSFFLTSKLTVDKSRWQQGNVFSCSVMHEALHNHYTQKSLSLSPGKGGGGSGGGGSGGGGISSGLLSSGGSGGSLSGRSDNHGGGGSAVNGTSQFTCFYNSRANISCVWSQDGALQDTSCQVHAWPDRRRWNQTCELLPVSQASWACNLILGAPDSQKLTTFDIVTLRVLCREGVRWRVMAIQDFKPFENLRLMAPISLQVVHVETHRCNISWEISQASHYFERHLEFEARTLSPGHTWEEAPLLTLKQKQEWICLETLTPDTQYEFQVRVKPLQGEFTTWSPWSQPLAFRTKPAALGKDT | – |
| – | – | no binding | Fc with LALA and hole mutation (L234A-L235A-Y407T) fused with beta subunit containing mutation (V75Q) (SEQ ID NO: 202), homodimer (Fc fusion) DKTHTCPPCPAPEAAGGPSVFLFPPKPKDTLMISRTPEVTCVVVDVSHEDPEVKFNWYVDGVEVHNAKTKPREEQYNSTYRVVSVLTVLHQDWLNGKEYKCKVSNKALPAPIEKTISKAKGQPREPQVYTLPPSREEMTKNQVSLTCLVKGFYPSDIAVEWESNGQPENNYKTTPPVLDSDGSFFLTSKLTVDKSRWQQGNVFSCSVMHEALHNHYTQKSLSLSPGKGGGGSGGGGSGGGGISSGLLSSGGSGGSLSGRSDNHGGGGSAVNGTSQFTCFYNSRANISCVWSQDGALQDTSCQVHAWPDRRRWNQTCELLPVSQASWACNLILGAPDSQKLTTQDIVTLRVLCREGVRWRVMAIQDFKPFENLRLMAPISLQVVHVETHRCNISWEISQASHYFERHLEFEARTLSPGHTWEEAPLLTLKQKQEWICLETLTPDTQYEFQVRVKPLQGEFTTWSPWSQPLAFRTKPAALGKDT | – |
| 187 | – | – | Fc with LALA and hole mutation (L234A-L235A-Y407T) fused with beta subunit containing mutation (S69H) (SEQ ID NO: 201), homodimer (Fc fusion) DKTHTCPPCPAPEAAGGPSVFLFPPKPKDTLMISRTPEVTCVVVDVSHEDPEVKFNWYVDGVEVHNAKTKPREEQYNSTYRVVSVLTVLHQDWLNGKEYKCKVSNKALPAPIEKTISKAKGQPREPQVYTLPPSREEMTKNQVSLTCLVKGFYPSDIAVEWESNGQPENNYKTTPPVLDSDGSFFLTSKLTVDKSRWQQGNVFSCSVMHEALHNHYTQKSLSLSPGKGGGGSGGGGSGGGGISSGLLSSGGSGGSLSGRSDNHGGGGSAVNGTSQFTCFYNSRANISCVWSQDGALQDTSCQVHAWPDRRRWNQTCELLPVSQASWACNLILGAPDHQKLTTVDIVTLRVLCREGVRWRVMAIQDFKPFENLRLMAPISLQVVHVETHRCNISWEISQASHYFERHLEFEARTLSPGHTWEEAPLLTLKQKQEWICLETLTPDTQYEFQVRVKPLQGEFTTWSPWSQPLAFRTKPAALGKDT | fold better binding affinity at pH 6.4 [3]: 2 fold |
| 118 | 124 | – | Fc with LALA and hole mutation (L234A-L235A-Y407T) fused with beta subunit containing mutation (D68E) (SEQ ID NO: 200), homodimer (Fc fusion) DKTHTCPPCPAPEAAGGPSVFLFPPKPKDTLMISRTPEVTCVVVDVSHEDPEVKFNWYVDGVEVHNAKTKPREEQYNSTYRVVSVLTVLHQDWLNGKEYKCKVSNKALPAPIEKTISKAKGQPREPQVYTLPPSREEMTKNQVSLTCLVKGFYPSDIAVEWESNGQPENNYKTTPPVLDSDGSFFLTSKLTVDKSRWQQGNVFSCSVMHEALHNHYTQKSLSLSPGKGGGGSGGGGSGGGGISSGLLSSGGSGGSLSGRSDNHGGGGSAVNGTSQFTCFYNSRANISCVWSQDGALQDTSCQVHAWPDRRRWNQTCELLPVSQASWACNLILGAPESQKLTTVDIVTLRVLCREGVRWRVMAIQDFKPFENLRLMAPISLQVVHVETHRCNISWEISQASHYFERHLEFEARTLSPGHTWEEAPLLTLKQKQEWICLETLTPDTQYEFQVRVKPLQGEFTTWSPWSQPLAFRTKPAALGKDT | fold increase of binding affinity at pH 7.4 and pH 6.4 [6]: 2 fold |
